The values below are quoted from earlier work in PMC8369179.

This data set addresses RAGE 23-121 (Homo sapiens) (UniProt Q15109).
UniProt Q15109, sequence (Q15109 23-121): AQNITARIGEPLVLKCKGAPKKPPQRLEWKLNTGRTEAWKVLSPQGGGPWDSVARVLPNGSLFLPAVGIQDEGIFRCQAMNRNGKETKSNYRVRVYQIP

Usually Kd stands for the equilibrium constant for the complex coming apart. Take HMGB1 1-215 (from UniProt P09429): the Kd is 48.3 nM.
